Reference: patent US10221225B2, “Peptides and combination of peptides and scaffolds thereof for use in immunotherapy against colorectal carcinoma (CRC) and other cancers” (immatics biotechnologies GmbH, priority 2015, dated 2019)

Tests used:
[1] = molecular target: HLA-A*02:01 (Homo sapiens, UniProt P04439, D140Y/D185E/D98H/E176V/E277Q/G131W/G231S/I119V/I121R/I166T/I218V/L300P/L318F/N151K/N90K/P208A/P217A/Q86G/Q94H/R138H/R169H/T345S); experiment: MHC binding assay (UV-ligand exchange, beta2m ELISA, peptide exchange yield); settings: MHC class I binding score; binding to HLA-A*02:01 ranged by peptide exchange yield (UV-ligand exchange, β2m ELISA)
In short: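 Exchange yield, UV-ligand exchange: 100-fold diluted samples on streptavidin plates, 1 h at 37 °C; HRP anti-β2m 1 h at 37 °C; TMB read at 450 nm.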

[2] = test system: CD8+ T-cells; experiment: In vitro T-cell priming assay with aAPCs loaded with peptide/MHC and anti-CD28, pMHC multimer readout; assay type: cell-based, human; settings: in vitro immunogenicity, HLA-A*02 restricted peptides
Description: In order to obtain information regarding the immunogenicity of the TUMAPs of the present invention, the inventors performed investigations using an in vitro T-cell priming assay based on repeated stimulations of CD8+ T-cells with artificial antigen presenting cells (aAPCs) loaded with peptide/MHC complexes and anti-CD28 antibody.
In order to perform in vitro stimulations by artificial antigen presenting cells loaded with peptide-MHC complex (pMHC) and anti-CD28 antibody, the inventors first isolated CD8+ T-cells from fresh HLA-A*02 leukopheresis products via positive selection using CD8 microbeads (Miltenyi Biotec, Bergisch-Gladbach, Germany) of healthy donors obtained from the University clinics Mannheim, Germany, after informed consent.
PBMCs and isolated CD8+ lymphocytes were incubated in T-cell medium (TCM) until use consisting of RPMI-Glutamax (Invitrogen, Karlsruhe, Germany) supplemented with 10% heat inactivated human AB serum (PAN-Biotech, Aidenbach, Germany), 100 U/ml Penicillin/100 μg/ml Streptomycin (Cambrex, Cologne, Germany), 1 mM sodium pyruvate (CC Pro, Oberdorla, Germany), 20 μg/ml Gentamycin (Cambrex). 2.5 ng/ml IL-7 (PromoCell, Heidelberg, Germany) and 10 U/ml IL-2 (Novartis Pharma, Nürnberg, Germany) were also added to the TCM at this step.
Generation of pMHC/anti-CD28 coated beads, T-cell stimulations and readout was performed in a highly defined in vitro system using four different pMHC molecules per stimulation condition and 8 different pMHC molecules per readout condition.
The purified co-stimulatory mouse IgG2a anti human CD28 Ab 9.3 (Jung et al., 1987) was chemically biotinylated using Sulfo-N-hydroxysuccinimidobiotin as recommended by the manufacturer (Perbio, Bonn, Germany). Beads used were 5.6 μm diameter streptavidin coated polystyrene particles (Bangs Laboratories, Illinois, USA).
800,000 beads/200 μl were coated in 96-well plates in the presence of 4×12.5 ng different biotin-pMHC, washed and 600 ng biotin anti-CD28 were added subsequently in a volume of 200 μl. Stimulations were initiated in 96-well plates by co-incubating 1×10^6 CD8+ T-cells with 2×10^5 washed coated beads in 200 μl TCM supplemented with 5 ng/ml IL-12 (PromoCell) for 3 days at 37° C. Half of the medium was then exchanged by fresh TCM supplemented with 80 U/ml IL-2 and incubating was continued for 4 days at 37° C. This stimulation cycle was performed for a total of three times. For the pMHC multimer readout using 8 different pMHC molecules per condition, a two-dimensional combinatorial coding approach was used as previously described (Andersen et al., 2012) with minor modifications encompassing coupling to 5 different fluorochromes. Finally, multimeric analyses were performed by staining the cells with Live/dead near IR dye (Invitrogen, Karlsruhe, Germany), CD8-FITC antibody clone SK1 (BD, Heidelberg, Germany) and fluorescent pMHC multimers. For analysis, a BD LSRII SORP cytometer equipped with appropriate lasers and filters was used. Peptide specific cells were calculated as percentage of total CD8+ cells. Evaluation of multimeric analysis was done using the FlowJo software (Tree Star, Oregon, USA). In vitro priming of specific multimer+ CD8+ lymphocytes was detected by comparing to negative control stimulations.

Question: Which results are given for “150 (RLADLEALKV; listed as Homo sapiens) [compound 150]”?
Answer: Peptide exchange [1]: ″+++″ (≥50 = +++); Wells positive [2]: ″++″ (20%-49% = ++)
